# B1: ADRBK2(GRK3) (protein, UniProt P35626 1-688, looked up)
# G protein-coupled receptor …: MADLEAVLADVSYLMAMEKSKATPAARASKRIVLPEPSIRSVMQKYLAERNEITFDKIFNQKIGFLLFKDFCLNEINEAVPQVKFYEEIKEYEKLDNEEDRLCRSRQIYDAYIMKELLSCSHPFSKQAVEHVQSHLSKKQVTSTLFQPYIEEICESLRGDIFQKFMESDKFTRFCQWKNVELNIHLTMNEFSVHRIIGRGGFGEVYGCRKADTGKMYAMKCLDKKRIKMKQGETLALNERIMLSLVSTGDCPFIVCMTYAFHTPDKLCFILDLMNGGDLHYHLSQHGVFSEKEMRFYATEIILGLEHMHNRFVVYRDLKPANILLDEHGHARISDLGLACDFSKKKPHASVGTHGYMAPEVLQKGTAYDSSADWFSLGCMLFKLLRGHSPFRQHKTKDKHEIDRMTLTVNVELPDTFSPELKSLLEGLLQRDVSKRLGCHGGGSQEVKEHSFFKGVDWQHVYLQKYPPPLIPPRGEVNAADAFDIGSFDEEDTKGIKLLDCDQELYKNFPLVISERWQQEVTETVYEAVNADTDKIEARKRAKNKQLGHEEDYALGKDCIMHGYMLKLGNPFLTQWQRRYFYLFPNRLEWRGEGESRQNLLTMEQILSVEETQIKDKKCILFRIKGGKQFVLQCESDPEFVQWKKELNETFKEAQRLLRRAPKFLNKPRSGTVELPKPSLCHRNSNGL
# B2: CSF1R (protein)
# chain: YKYKQKPKYQVRWKIIESYEGNSYTFIDPTQLPYNEKWEFPRNNLQFGKTLGAGAFGKVVEATAFGLGKEDAVLKVAVKMLKSTAHADEKEALMSELKIMSHLGQHENIVNLLGACTHGGPVLVITEYCCYGDLLNFLRRKAEAMLGPSLSPGQDPEGGVDYKNIHLEKKYVRRDSGFSSQGVDTYVEMRPVSTSSNDSFSEQDLDKEDGRPLELRDLLHFSSQVAQGMAFLASKNCIHRDVAARNVLLTNGHVAKIGDFGLARDIMNDSNYIVKGNARLPVKWMAPESIFDCVYTVQSDVWSYGILLWEIFSLGLNPYPGILVNSKFYKLVKDGYQMAQPAFAPKNIYSIMQACWALEPTHRPTFQQICSFLQEQAQEDRRERDYTNLPSSSRSGGSGSSSSELEEESSSEHLTCCEQGDIAQPLLQPNNYQFC
# modifications: left off: small tags and cut ends
# B3: AKT2 (protein)
# chain: MNEVSVIKEGWLHKRGEYIKTWRPRYFLLKSDGSFIGYKERPEAPDQTLPPLNNFSVAECQLMKTERPRPNTFVIRCLQWTTVIERTFHVDSPDEREEWMRAIQMVANSLKQRAPGEDPMDYKCGSPSDSSTTEEMEVAVSKARAKVTMNDFDYLKLLGKGTFGKVILVREKATGRYYAMKILRKEVIIAKDEVAHTVTESRVLQNTRHPFLTALKYAFQTHDRLCFVMEYANGGELFFHLSRERVFTEERARFYGAEIVSALEYLHSRDVVYRDIKLENLMLDKDGHIKITDFGLCKEGISDGATMKTFCGTPEYLAPEVLEDNDYGRAVDWWGLGVVMYEMMCGRLPFYNQDHERLFELILMEEIRFPRTLSPEAKSLLAGLLKKDPKQRLGGGPSDAKEVMEHRFFLSINWQDVVQKKLLPPFKPQVTSEVDTRYFDDEFTAQSITITPPDRYDSLGLLELDQRTHFPQFSYSASIRE
# modifications: left off: small tags and cut ends
# B4: AKT3 (protein)
# chain: MSDVTIVKEGWVQKRGEYIKNWRPRYFLLKTDGSFIGYKEKPQDVDLPYPLNNFSVAKCQLMKTERPKPNTFIIRCLQWTTVIERTFHVDTPEEREEWTEAIQAVADRLQRQEEERMNCSPTSQIDNIGEEEMDASTTHHKRKTMNDFDYLKLLGKGTFGKVILVREKASGKYYAMKILKKEVIIAKDEVAHTLTESRVLKNTRHPFLTSLKYSFQTKDRLCFVMEYVNGGELFFHLSRERVFSEDRTRFYGAEIVSALDYLHSGKIVYRDLKLENLMLDKDGHIKITDFGLCKEGITDAATMKTFCGTPEYLAPEVLEDNDYGRAVDWWGLGVVMYEMMCGRLPFYNQDHEKLFELILMEDIKFPRTLSSDAKSLLSGLLIKDPNKRLGGGPDDAKEIMRHSFFSGVNWQDVYDKKLVPPFKPQVTSETDTRYFDEEFTAQTITITPPEKYDEDGMDCMDNERRPHFPQFSYSASGRE
# modifications: left off: small tags and cut ends
# System: kinases of Table 6 on Myelin Basic Protein (MBP)
# Experiment: Kinase assay using MBP substrate, ProQ Diamond stain (Table 6)
# Assay type: biochemical
# Details: kinase printed on MBP-coated slide; 20 uM ATP, 30° C.; ProQ Diamond Microarray Stain; graded Strong/Weak/Negative
# How it was run: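 Bovine dephosphorylated MBP coated on aldehyde- or epoxy-glass slides, kinases printed on top; reaction buffer pH 7.5 with 4 mM MgCl2, 20 uM ATP, 5% DMSO, ± inhibitor, at 30° C. Phosphorylation detected by ProQ Diamond stain, 30 min in dark.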
row,Molecule,MBP Kinase Activity
1,B1,Negative
2,B2,Strong
3,B3,Strong
4,B4,Strong
